The values that follow come from publication doi:10.1101/2023.05.30.542914 (bioRxiv, 2023).

The target in this experiment is T1, COPB2_(1-304), N-terminal WD-repeat domain of the COPB2 coatomer subunit (S. cerevisiae, UniProt P41811 1-304).
T1 sequence: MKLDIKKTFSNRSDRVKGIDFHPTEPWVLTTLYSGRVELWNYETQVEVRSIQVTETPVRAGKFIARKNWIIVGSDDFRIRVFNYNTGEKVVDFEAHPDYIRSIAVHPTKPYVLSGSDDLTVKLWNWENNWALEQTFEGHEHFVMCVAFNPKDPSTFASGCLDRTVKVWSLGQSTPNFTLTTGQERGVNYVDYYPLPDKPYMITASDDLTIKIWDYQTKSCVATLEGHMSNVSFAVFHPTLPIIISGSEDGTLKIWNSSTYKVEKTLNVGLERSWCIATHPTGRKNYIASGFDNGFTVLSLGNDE
Put plainly: ITC.

In the case of LKIKKP [Wnt_(252-257) peptide (LKIKKP), C-terminal half of the EBP], the equilibrium dissociation constant (Kd) came to 37.2 µM.

Molecule PVRASRNKRPTFLKIKKP [Exosome Binding Peptide (EBP) of Wnt7a, 18 aa polypeptide (240-257)] showed a Kd of 11.6 µM.

The Kd is the constant that tells how readily two partners part at equilibrium. A high value points to lower affinity.
